Test results as given in article PMC8285372 (2021).
Each block holds one binder with its values, some of them ahead of it.

Assays:
[1] = target: T1, KRAS G12R peptide on HLA-B*07:02 (human); test: mean peptide concentration for 50% NFAT activation; J^ASP90 reporter cells 1:1 with HLA-SCD K562 pulsed with titrated peptide (10 μM–1 pM), 16–20 h; full-length, on cells
T1 peptide: GARGVGKSAL

[2] = target: KRAS G12V peptide on HLA-A*11:01 (human); test: as above

EC50 of peptide [1]: 3.38 nM
B1: TCRB7R (TCR)
alpha TRAV4 TRAJ41 CDR3: CLVGDFNSNSGYALNF
beta TRBV7-2 TRBJ1-2 CDR3: CASKVYGYTF

EC50 of peptide [2]: 0.15 nM
B2: TCRA11V (TCR)
alpha TRAV12-1 TRAJ8 CDR3: CAVNPPDTGFQKLVF
beta TRBV28 TRBJ2-7 CDR3: CASSLSFRQGLREQYF
